The supplement of paper PMC10126150
± gives the standard deviation of the averaged measurements.

These sequences were tested on ATP (assay: switch fluorescence ratio, 500 uM ATP over buffer (Cy3 cluster intensity, sum of 5 cycles each) (fold (ratio)); higher = stronger signal-on switching upon ATP binding; sequences stand for … in TCGTCGGCAGCGTCAGATGTGTATAAGAGACAGTTTTTTTTTTTTTTTTTTTTTTTTT…TC). Settings: aptamer strand: ATP DNA aptamer (quencher-CACCTGGGGGAGTATTGCGGAGGAAGG + anchor), 100 nM annealed; ATP concentration: 500 uM.
Method in brief: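 The quencher-labelled ATP aptamer, at 100 nM, was annealed to Cy3-labelled switching-strand clusters on a modified Illumina MiSeq flow-cell. The clusters were imaged in selection buffer, then after 15 min with 500 uM ATP at 22 °C, and this buffer/ATP cycle ran five times with NaOH stripping and re-annealing between runs. Per-cluster fluorescence ratios, summed target-cycle over summed buffer-cycle Cy3 intensity, were averaged per switch-domain sequence. Clusters outside 100-1000 RFU were excluded.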
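Also: ATP exposure 15 min at 22 °C before imaging.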

| Sequence | switch fluorescence ratio |
| --- | --- |
| CCGGGCAAGA | 5.5 ± 1.4 |
| CCGGGCCGAA | 1.05 ± 0.017 |
| CCGGGGGAAT | 1.13 ± 0.16 |
| CCGGGGGTTT | 1.036 ± 0.0054 |
| CCGGGGTATT | 1.07 ± 0.033 |
| CCGGGGTGTA | 1.32 ± 0.36 |
| CCGGGGTTAG | 1.38 ± 0.42 |
| CCGGGGTTTT | 1.11 ± 0.22 |
| CCGGGTATGG | 1.02 ± 0.016 |
| CCGGGTGGGG | 1.04 ± 0.03 |
| CCGGTAGGCC | 0.978 ± 0.033 |
| CCGGTGGCTG | 1 ± 0.033 |
| CCGGTTGTGA | 1.177 ± 0.0083 |
| CCGGTTTCGT | 1.26 ± 0.26 |
| CCGTAAGAAT | 1.37 ± 0.055 |
| CCGTACGGGG | 1.029 ± 0.0055 |
| CCGTACGTCA | 1.77 ± 0.041 |
| CCGTATATGT | 1.19 ± 0.029 |
| CCGTCAGAGT | 1.09 ± 0.014 |
| CCGTCAGGTT | 1.012 ± 0.005 |
| CCGTCGCTTA | 2.36 ± 0.37 |
| CCGTGAGAAT | 1.07 ± 0.018 |
| CCGTGCCGTT | 0.948 ± 0.024 |
| CCGTGCTTTT | 1.08 ± 0.047 |
| CCGTGGGGAT | 1.24 ± 0.26 |

| Sequence | switch fluorescence ratio |
| --- | --- |
| CCGTTATTAG | 1.3518 ± 0.0007 |
| CCGTTCAGGG | 1.001 ± 0.0045 |
| CCGTTGAAAT | 1.22 ± 0.011 |
| CCGTTGAGTG | 0.995 ± 0.024 |
| CCGTTGATGT | 1.014 ± 0.002 |
| CCGTTGGATT | 0.983 ± 0.01 |
| CCGTTGGTTT | 0.9937 ± 0.0088 |
| CCGTTGTCCA | 1.02 ± 0.032 |
| CCGTTTGGTT | 0.995 ± 0.064 |
| CCTAAAAGTT | 1.01 ± 0.05 |
| CCTAAAGTTT | 0.983 ± 0.014 |
| CCTAACACGA | 1.11 ± 0.027 |
| CCTAATCAAC | 1.13 ± 0.034 |
| CCTAATTGAA | 0.9728 ± 0.0041 |
| CCTACAGTGA | 1.752 ± 0.015 |
| CCTACTAGAT | 1.142 ± 0.007 |
| CCTAGCCCTT | 1.05 ± 0.054 |
| CCTAGGTAAA | 0.993 ± 0.034 |
| CCTAGTTAGT | 1.02 ± 0.034 |
| CCTATATACG | 1.13 ± 0.042 |
| CCTATGAATG | 0.987 ± 0.018 |
| CCTATTACA | 1.03 ± 0.026 |
| CCTATTGGGT | 1.02 ± 0.013 |
| CCTATTTATT | 1.01 ± 0.02 |
| CCTCAGCGGA | 3.35 ± 0.42 |

| Sequence | switch fluorescence ratio |
| --- | --- |
| CCTCATCGAG | 1.07 ± 0.024 |
| CCTCATTCGG | 1.06 ± 0.021 |
| CCTCGATGTA | 1.08 ± 0.027 |
| CCTCGGGAAA | 1.06 ± 0.1 |
| CCTCGGTAGG | 1.02 ± 0.0051 |
| CCTCTAAGTT | 1.27 ± 0.054 |
| CCTCTGGCGC | 3.9 ± 0.3 |
| CCTGAAATAT | 2.53 ± 1.7 |
| CCTGAAGTTG | 1.18 ± 0.21 |
| CCTGAGGAGA | 1.03 ± 0.015 |
| CCTGATTTGA | 0.989 ± 0.02 |
| CCTGCATTTG | 1.0933 ± 0.00019 |
| CCTGCCGTTA | 1.27 ± 0.078 |
| CCTGCTGTTC | 1.51 ± 0.09 |
| CCTGCTTTTT | 1.02 ± 0.021 |
| CCTGGACTCG | 1.02 ± 0.03 |
| CCTGGAGAGT | 1.02 ± 0.059 |
| CCTGGCCTGC | 1.078 ± 0.01 |
| CCTGGCGATG | 1.38 ± 0.053 |
| CCTGGGAAGA | 1.02 ± 0.017 |
| CCTGGGCGGT | 1.32 ± 0.031 |
| CCTGGGGGCC | 1 ± 0.013 |
| CCTGGGGGG | 1.02 ± 0.045 |
| CCTGGTACGT | 1.01 ± 0.034 |
| CCTGGTCGGC | 1.02 ± 0.035 |

| Sequence | switch fluorescence ratio |
| --- | --- |
| CCTGGTGGAC | 1.11 ± 0.058 |
| CCTGTATTTT | 1.011 ± 0.0077 |
| CCTGTTATGG | 1.01 ± 0.032 |
| CCTGTTCCGA | 1.19 ± 0.028 |
| CCTGTTTGTT | 0.967 ± 0.038 |
| CCTTAAAAAA | 1.04 ± 0.014 |
| CCTTAGGTAT | 1.011 ± 0.0094 |
| CCTTAGTGAC | 1.36 ± 0.069 |
| CCTTAGTTTT | 0.983 ± 0.022 |
| CCTTATAGTT | 0.995 ± 0.023 |
| CCTTATCCG | 1.07 ± 0.068 |
| CCTTATGCCA | 1.09 ± 0.061 |
| CCTTATTGAA | 0.979 ± 0.021 |
| CCTTCCGTTC | 2.66 ± 0.53 |
| CCTTCCTACG | 2.36 ± 0.54 |
| CCTTCGTTGT | 2.85 ± 0.64 |
| CCTTGAACGG | 0.9606 ± 0.005 |
| CCTTGAATGG | 1.05 ± 0.005 |
| CCTTGCCGGT | 1.022 ± 0.0094 |
| CCTTGCGGGG | 1.06 ± 0.012 |
| CCTTGCGTTC | 2.68 ± 0.19 |
| CCTTGGGGAT | 1.11 ± 0.12 |
| CCTTGGGGGA | 1.14 ± 0.055 |
| CCTTGGGTTT | 1.08 ± 0.13 |
| CCTTGGTATT | 0.998 ± 0.026 |
